Patent publication US20130190232A1 (Novo Nordisk, published 2013)

T1: human beta-Klotho (human, UniProt Q86Z14 1-1044)
T1 sequence (looked up): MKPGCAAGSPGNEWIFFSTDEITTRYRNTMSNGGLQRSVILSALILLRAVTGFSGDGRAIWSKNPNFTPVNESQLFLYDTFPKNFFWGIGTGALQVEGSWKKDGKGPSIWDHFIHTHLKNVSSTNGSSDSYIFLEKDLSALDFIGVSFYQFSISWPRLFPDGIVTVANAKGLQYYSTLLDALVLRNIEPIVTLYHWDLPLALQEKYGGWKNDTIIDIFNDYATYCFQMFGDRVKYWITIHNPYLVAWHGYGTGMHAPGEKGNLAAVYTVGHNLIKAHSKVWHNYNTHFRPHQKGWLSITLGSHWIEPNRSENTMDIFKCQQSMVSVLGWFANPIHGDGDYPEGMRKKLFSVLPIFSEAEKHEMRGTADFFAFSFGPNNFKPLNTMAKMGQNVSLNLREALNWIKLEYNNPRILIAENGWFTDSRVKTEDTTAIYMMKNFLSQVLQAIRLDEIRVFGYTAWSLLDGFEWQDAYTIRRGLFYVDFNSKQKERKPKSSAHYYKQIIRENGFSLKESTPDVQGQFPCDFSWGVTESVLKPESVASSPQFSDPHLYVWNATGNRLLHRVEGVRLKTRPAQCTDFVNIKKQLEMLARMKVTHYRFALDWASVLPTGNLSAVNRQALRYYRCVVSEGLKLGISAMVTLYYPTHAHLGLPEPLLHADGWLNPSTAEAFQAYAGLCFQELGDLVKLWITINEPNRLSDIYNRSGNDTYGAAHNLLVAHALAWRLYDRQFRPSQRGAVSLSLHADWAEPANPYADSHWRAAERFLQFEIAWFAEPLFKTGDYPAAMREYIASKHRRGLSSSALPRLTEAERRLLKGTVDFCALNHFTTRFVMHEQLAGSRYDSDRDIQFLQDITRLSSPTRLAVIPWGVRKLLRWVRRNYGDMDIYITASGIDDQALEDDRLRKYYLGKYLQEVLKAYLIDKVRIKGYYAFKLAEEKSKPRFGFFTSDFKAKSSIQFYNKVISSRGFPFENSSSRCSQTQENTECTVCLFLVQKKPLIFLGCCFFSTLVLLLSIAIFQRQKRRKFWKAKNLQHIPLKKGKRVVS

B1: [N121Q, L166F, S167G, M168L, P171L, S172E, Q173A, G174V, Y179F, A180E, des181]Ala-FGF21 (ligand)
chain: AHPIPDSSPLLQFGGQVRQRYLYTDDAQQTEAHLEIREDGTVGGAADQSPESLLQLKALKPGVIQILGVKTSRFLCQRPDGALYGSLHFDPEACSFRELLLEDGYNVYQSEAHGLPLHLPGQKSPHRDPAPRGPARFLPLPGLPPALPEPPGILAPQPPDVGSSDPFGLVGLEAVRSPSFE
B2: N-alpha(4-{[2-(2-{2-[2-(2-{2-[(S)-4-Carboxy-4-(17-carboxyheptadecanoylamino)butyrylamino]-ethoxy}ethoxy)acetylamino]ethoxy}ethoxy)acetylamino]methyl}benzyl) … (ligand)
chain: AHPIPDSSPLLQFGGQVRQRYLYTDDAQQTEAHLEIREDGTVGGAADQSPESLLQLKALKPGVIQILGVKTCRFLCQRPDGALYGSLHFDPEACSFRELLLEDGYNVYQSEAHGLPLHLPGQKSPHRDPAPRGPARFLPLPGLPPALPEPPGILAPQPPDVGSSDPFGLVGLEAVRSPSFE
modifications: alpha amino group of the N-terminal Ala carries one 4-{[2-(2-{2-[2-(2-{2-[(S)-4-carboxy-4-(17-carboxyheptadecanoylamino)butyrylamino]ethoxy}ethoxy)acetylamino]ethoxy}ethoxy)acetylamino]methyl}benzyl group
B3: [S71C, N121Q, L166F, S167G, M168L, P171L, S172E, Q173A, G174V, Y179F, A180E, des181]Ala-FGF21 (ligand)
chain: AHPIPDSSPLLQFGGQVRQRYLYTDDAQQTEAHLEIREDGTVGGAADQSPESLLQLKALKPGVIQILGVKTCRFLCQRPDGALYGSLHFDPEACSFRELLLEDGYNVYQSEAHGLPLHLPGQKSPHRDPAPRGPARFLPLPGLPPALPEPPGILAPQPPDVGSSDPFGLVGLEAVRSPSFE
B4: [S71C, N121Q, L166F, S167G, M168L, des170, 173aA, G174V, Y179F, A180E, des181]Ala-FGF21 (ligand)
chain: AHPIPDSSPLLQFGGQVRQRYLYTDDAQQTEAHLEIREDGTVGGAADQSPESLLQLKALKPGVIQILGVKTCRFLCQRPDGALYGSLHFDPEACSFRELLLEDGYNVYQSEAHGLPLHLPGQKSPHRDPAPRGPARFLPLPGLPPALPEPPGILAPQPPDVGSSDPFGLVPSQAVRSPSFE
B5: [S71C, N121Q, L166F, S167G, M168L, 173aA, G174V, Y179F, A180E, des181]Ala-FGF21 (ligand)
chain: AHPIPDSSPLLQFGGQVRQRYLYTDDAQQTEAHLEIREDGTVGGAADQSPESLLQLKALKPGVIQILGVKTCRFLCQRPDGALYGSLHFDPEACSFRELLLEDGYNVYQSEAHGLPLHLPGQKSPHRDPAPRGPARFLPLPGLPPALPEPPGILAPQPPDVGSSDPFGLVGPSQAVRSPSFE
B6: Met-FGF21 (Compound A) (ligand)
chain: MHPIPDSSPLLQFGGQVRQRYLYTDDAQQTEAHLEIREDGTVGGAADQSPESLLQLKALKPGVIQILGVKTSRFLCQRPDGALYGSLHFDPEACSFRELLLEDGYNVYQSEAHGLPLHLPGNKSPHRDPAPRGPARFLPLPGLPPALPEPPGILAPQPPDVGSSDPLSMVGPSQGRSPSYAS
B7: [N121Q] Ala-FGF21 (ligand)
chain: AHPIPDSSPLLQFGGQVRQRYLYTDDAQQTEAHLEIREDGTVGGAADQSPESLLQLKALKPGVIQILGVKTSRFLCQRPDGALYGSLHFDPEACSFRELLLEDGYNVYQSEAHGLPLHLPGQKSPHRDPAPRGPARFLPLPGLPPALPEPPGILAPQPPDVGSSDPLSMVGPSQGRSPSYAS
B8: [K56R, K59R, K69R, K122R]Gly-FGF21 (ligand)
chain: GHPIPDSSPLLQFGGQVRQRYLYTDDAQQTEAHLEIREDGTVGGAADQSPESLLQLRALRPGVIQILGVRTSRFLCQRPDGALYGSLHFDPEACSFRELLLEDGYNVYQSEAHGLPLHLPGNRSPHRDPAPRGPARFLPLPGLPPALPEPPGILAPQPPDVGSSDPLSMVGPSQGRSPSYAS
B9: [N121Q]Met-FGF21 (ligand)
chain: MHPIPDSSPLLQFGGQVRQRYLYTDDAQQTEAHLEIREDGTVGGAADQSPESLLQLKALKPGVIQILGVKTSRFLCQRPDGALYGSLHFDPEACSFRELLLEDGYNVYQSEAHGLPLHLPGQKSPHRDPAPRGPARFLPLPGLPPALPEPPGILAPQPPDVGSSDPLSMVGPSQGRSPSYAS
B10: N-alpha-bis-(4-{[2-(2-{2-[2-(2-{2-[(S)-4-carboxy-4-(17-carboxyheptadecanoylamino)butyrylamino]ethoxy}ethoxy)acetylamino]ethoxy}ethoxy)acetylamino]methyl}benzyl) … (ligand)
chain: GHPIPDSSPLLQFGGQVRQRYLYTDDAQQTEAHLEIREDGTVGGAADQSPESLLQLRALRPGVIQILGVRTSRFLCQRPDGALYGSLHFDPEACSFRELLLEDGYNVYQSEAHGLPLHLPGNRSPHRDPAPRGPARFLPLPGLPPALPEPPGILAPQPPDVGSSDPLSMVGPSQGRSPSYAS
modifications: alpha amino group of the N-terminal Gly carries two 4-{[2-(2-{2-[2-(2-{2-[(S)-4-carboxy-4-(17-carboxyheptadecanoylamino)butyrylamino]ethoxy}ethoxy)acetylamino]ethoxy}ethoxy)acetylamino]methyl}benzyl groups

Each molecule was assayed against T1, human beta-Klotho (assay: cell-based or functional assay).

Point of comparison: B7, pERK-HEK293-Beta-klotho without HSA [EC50 (nM)] Mean Value 2.3 nM. Against it:
- N-alpha-(4-{[2-(2-{2-[2-(2-{2-[(S)-4-carboxy-4-(17-carboxyheptadecanoylamino)butyrylamino]ethoxy}ethoxy)acetylamino]ethoxy}ethoxy)acetylamino]methyl}benzyl) [K56R, K59R, K69R, D102T, D121Q, K122R, L166F, S167G, M168L, G170T] Ala-FGF21 (Compound III) (from UniProt Q9NSA1 28-209) (ligand) — lower, 1 nM
- [Q28R, K56R, K59R, K69R, D102T, D121Q, K122R, L166F, S167G, M168L, G170T] Ala-FGF21 (from UniProt Q9NSA1 28-209) (ligand) — lower, 0.8 nM
- B1 — lower, 0.7 nM
- B2 — lower, 0.4 nM
- B3 — lower, 0.6 nM
- B4 — lower, 1.8 nM
- B5 — lower, 0.4 nM
- B6 — lower, 1.6 nM
- B8 — higher, 8.3 nM
- B9 — lower, 1 nM
- B10 — higher, 4.6 nM
